How the values were obtained:
Assay in all cases: cell-based or functional assay
[1] = target: Truncated EGFR (human EGFR containing only extracellular and transmembrane domains) (human) (UniProt P00533)
[2] = target: truncated CD19 on EL4 cells (UniProt P15391)
[3] = target: EGFR on human cell lines (A431, T98G, LN18, U87, U87high, HRCE) (human) (UniProt P00533)

Sequence of UniProt P15391 (P15391 20-333 limits assumed): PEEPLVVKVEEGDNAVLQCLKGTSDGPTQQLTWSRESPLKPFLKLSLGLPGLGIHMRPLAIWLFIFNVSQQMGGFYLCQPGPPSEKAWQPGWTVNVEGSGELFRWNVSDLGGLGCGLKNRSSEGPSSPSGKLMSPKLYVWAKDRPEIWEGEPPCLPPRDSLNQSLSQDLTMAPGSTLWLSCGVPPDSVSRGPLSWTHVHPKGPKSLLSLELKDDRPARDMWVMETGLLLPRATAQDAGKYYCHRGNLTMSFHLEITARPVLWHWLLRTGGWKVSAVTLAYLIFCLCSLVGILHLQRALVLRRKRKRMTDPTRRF

numeric expansion of CAR+ T cells over 28 days of co-culture with tEGFR+ K562 aAPC [1] [fold] | proportion of tEGFR+ EL4 in 1:1 co-culture with CAR+ T cells after 5 days [1] [%] | specific lysis of tEGFR+ EL4 [1] [%] | specific lysis of CD19+ EL4 (non-specific target) [2] [%] | percent CAR remaining on T-cell surface after 12 hours of co-culture with U87 [3] [%] | percent CAR remaining on T-cell surface after 12 hours of co-culture with U87high [3] [%] | percent CAR remaining on T-cell surface after 48 hours of co-culture with U87 [3] [%] | percent CAR remaining on T-cell surface after 48 hours of co-culture with U87high [3] [%] | reduction in U87high cell number relative to controls grown without CAR+ T cells [3] [%] | specific lysis of HRCE, 10:1 E:T ratio [3] [%] | production of IFN-γ in response to tEGFR+ EL4, DNA-modified T cells, 24 hour time point [1] [%] | production of IFN-γ in response to tEGFR+ EL4, DNA-modified T cells, 120 hour time point [1] [%] | production of IFN-γ in response to tEGFR+ EL4, RNA-modified T cells, 24 hours after RNA transfer [1] [%] | production of IFN-γ in response to tEGFR+ EL4, RNA-modified T cells, 120 hours after RNA transfer [1] [%] | reduction in U87 cell number relative to controls grown without CAR+ T cells [3] [%] | specific lysis of HRCE, DNA-modified T cells, 10:1 E:T ratio, 24 hrs [3] [%] | specific lysis of HRCE, DNA-modified T cells, 10:1 E:T ratio, 120 hrs [3] [%] | specific lysis of HRCE, RNA-modified T cells, 10:1 E:T ratio, 24 hrs [3] [%] | specific lysis of HRCE, RNA-modified T cells, 10:1 E:T ratio, 120 hrs [3] [%] | Substance
1000 | 80 | 21.2 | 12.3 | 126 | 124 | 94.4 | 95.7 | 80 | 30.4 | – | – | – | – | – | – | – | – | – | Nimotuzumab-derived CAR
1000 | < 10 | 57.5 | 17.3 | 68 | 37.4 | 95.5 | 42.6 | 80 | 81.1 | 40.3 | 48.6 | 14.2 | 1.1 | 40 | 45.5 | 51.6 | 39.5 | 19.8 | Cetuximab-derived CAR

Reference: patent publication US20230312675A1
